Sequences and labels used below:
B1: Antiangiogenic Ligand-Binding Polypeptide (AALBP), chymotryptic fragment of chicken gizzard Tpm cTPM1 (other)
chain: not shown
B2: Recombinant HKa domain 5 (HKa D5) (ligand)
chain: VSPPHTSMAPAQDEERDSGKEQGHTRRHDWGHEKQRKHNLGHGHKHERDQGHGHQRGHGLGHGHEQQHGLGHGHKFKLDDDLEHQGGHVLDHGHKHKHGHGHGKHKNKGKKNGKHNGWKTEHLAS
notes: also called HK-D5; D5 domain of HKa
B3: ATN230 (peptide)
peptide: HHPHG
notes: Synthetic pentapeptide; also called HHPHG
B4: ATN-278.000.01 (Fmoc N-capped HHPHG) (peptide)
peptide: Fmoc-HHPHG
notes: The text says the N-terminus of the pentapeptide HHPHG was capped
B5: Histidine-Proline rich (H/P) domain of HPRG (ligand)
chain: SVNIIHRPPPHGHHPHGPPPHGHHPHGPPPHGHPPHGPPPRHPPHGPPPHGHPPHGPPPHGHPPHGPPPHGHPPHGPPPHGHPPHGHGFHDHGPCDPPSHK
notes: also called HPRG-H/P; HPRG-H/P domain

The target in assay [1] is B2. Nature of the assay: chymotryptic digest of chicken gizzard Tpm on HK-D5-Sepharose in TBS with 10 uM ZnCl2, elution with 2 M NaCl, SDS-PAGE. The procedure:
Chicken gizzard Tpm (0.4 mg/ml) was incubated with 5 μg/ml chymotrypsin in TBS pH 7.5 at 37° C. and aliquots were taken at the indicated times. SDS-PAGE sample buffer was added and the sample heated at 80° C. for 4 minutes and then loaded onto and run on a 10% NuPage gel (Invitrogen).
Chicken gizzard Tpm was partially digested with Chymotrypsin as described for FIG. 19 for 100 minutes so that a 20 kDa fragment was enriched. HK-D5 had previously immobilized in an activated Sepharose (CNBr-activated Sepharose 4 B, Amersham Biosciences). The chymotryptic fragments were incubated with the HK-D5-Sepharose resin in TBS containing 10 μM ZnCl₂, washed extensively in the same buffer and eluted in 2 M NaCl. The samples were run in a 10% NuPage gel (Invitrogen).

The target in assay [2] is T1, Chicken gizzard tropomyosin (Tpm), purified (chicken).
T1 construct: Bought from Sigma and coated on 96-well plates; also called purified Tpm; immobilized Tpm
T1 sequence (chain, as listed by the source limits assumed): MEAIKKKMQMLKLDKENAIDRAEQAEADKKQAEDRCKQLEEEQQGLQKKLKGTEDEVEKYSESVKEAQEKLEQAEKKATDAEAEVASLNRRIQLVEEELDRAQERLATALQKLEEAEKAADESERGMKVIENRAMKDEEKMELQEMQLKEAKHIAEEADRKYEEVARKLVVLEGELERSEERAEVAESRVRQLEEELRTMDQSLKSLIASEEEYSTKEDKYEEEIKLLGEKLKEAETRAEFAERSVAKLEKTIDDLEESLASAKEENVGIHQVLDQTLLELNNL
The assay is described as follows: competition ELISA against 10 nM biotin-HKa on immobilized chicken gizzard Tpm, 10 uM ZnCl2. (In an ELISA, binding on a coated surface is turned into a signal by an enzyme label.)

In assay [3] the target is T1, Chicken gizzard tropomyosin (Tpm), …. The assay is described as follows: competition with 10 nM biotin-HKa on plate coated with 200 ng chicken gizzard Tpm, 10 µM ZnCl2. The procedure: 10 nM biotin-HKa was added to a 96 well plate previously coated with 200 ng of chicken gizzard Tpm in the presence of 10 μM ZnCl₂. Increasing amounts of HK-D5, HPRG-H/P domain or endostatin were added to the wells. Bound biotin-HKa was detected and Kd was calculated as for FIG. 10.
Binding to immobilized Tpm is carried out either by a competition assay with a known ligand, biotin-HKa, or by direct binding of the corresponding biotinylated protein. Plates are coated at room temperature with chicken gizzard Tpm (Sigma) in Tris buffer-saline (TBS) (200 ng/well). After incubation for 2 hours, wells are washed with TBS, then 1% BSA/TBS/Tween-20 is added to each well and incubate at 37° C. for two hours. HKa (Enzyme Laboratories) that had been previously biotinylated with EZ-Link (Pierce) according to the manufacturers instructions, is added to the plate at a concentration of 10 nM together with ZnCl₂ (10 μM) and the appropriate concentration of the protein, domain or peptide competitor. The plates are incubated at room temperature and then washed with TBS/Tween-20. Avidin-HRP is added, incubated for 20 minutes at room temperature, washed with TBS/Tween-20 and the chromogenic substrate is added. The reaction is stopped with sulfuric acid and the plate read at 490 nm.

For assay [4] the target is unchanged. The assay is described as follows: inhibition of binding of 20 nM biotin-HKa to purified immobilized chicken gizzard Tpm; competition against 20 nM biotin-HKa. The procedure: FIGS. 7A-7C show specific binding of HKa to purified immobilized Tpm and its inhibition. […] Plates were incubated with increasing concentrations of biotin-HKa in the absence or presence of 10 μM Zn²⁺. […] The IC₅₀ for this inhibition was about 8.1 nM.

For assay [5] the target is unchanged. Nature of the assay: displacement of 10 nM biotin-HKa from immobilized chicken gizzard Tpm, 10 µM ZnCl2. The procedure:
The IC₅₀ for the displacement of biotinylated-HKa for the peptides shown in Table 5 was determined as follows: 10 nM biotin-HKa is added to a 96 well plate previously coated with 200 ng of chicken gizzard Tpm in the presence of 10 μM ZnCl₂. Increasing amounts of the peptides are added to the wells. The remaining biotin-HKa bound to Tpm was detected using avidin-HRP and a chromogenic substrate. A Kd was determined by non-linear regression analysis of the empirical data. The effect on the Matrigel Plug assay was determined as follows: Matrigel (0.5 mL) containing 400 ng/ml of bFGF, 50 μg/ml heparin with or without the peptide (300 μM) or saline buffer are injected in the flanks of a mouse. After five days, the plugs are removed and the plugs scanned.

For assay [6] the target is unchanged. Nature of the assay: binding to Tpm in vitro; assay not detailed.
Assay [7] has the same target. Nature of the assay: displacement of 10 nM biotin-HKa from immobilized chicken gizzard Tpm, 10 µM ZnCl2. The procedure: The N-terminus of the pentapeptide HHPHG has been derivatized (capped) in an attempt to increase the pentapeptides' affinity to Tpm by increasing productive molecular contacts (or interactions). […] The IC₅₀ for the displacement of biotinylated-HKa for the capped peptides shown in the table was determined as follows: 10 nM biotin-HKa was added to a 96 well plate previously coated with 200 ng of chicken gizzard Tpm in the presence of 10 μM ZnCl₂. Increasing amounts of the peptides were added to the wells. The remaining biotin-HKa bound to Tpm was detected using avidin-HRP and a chromogenic substrate. A Kd was determined by non-linear regression analysis of the empirical data
This is another data set of the same source.

Ends that are not written are not given here. * marks the point of attachment. Fmoc = O=C(OCC1c2ccccc2-c2ccccc21)*

In the case of B1, the binding result in assay [1] is “binds”.
As a reminder, the IC50 is the concentration that inhibits the measured activity by half. Low readings indicate greater potency in that assay, high ones weaker potency in that assay. B2: in assay [2], the “IC50 (read off the curve)” value is around 0.002 µM. The “fold higher affinity than endostatin” value in assay [3] is around 1000 fold. In assay [4], this molecule returned an IC50 of around 0.0081 µM.
In turn, B3 returned an IC50 in assay [5] of 121 µM.
Still for that read-out and setting: then HPPHG (also called HPPHG) [ATN228], with 150 µM.
AHPHG [AHPHG (Ala substituted mutant of HHPHG)]: the binding result in assay [6] was “no binding”.
With {3‑(1-adamantyl)propanoyl}-HHPHG [ATN-281.000.01 (3-(1-adamantyl)propanoyl N-capped HHPHG)], in assay [7], the IC50 worked out at 59 µM.
Still for that read-out and setting: as for B4, the figure is 55 µM.
In assay [5], HKNKGKKN [ATN16] yielded an IC50 of 99.5 µM.
On the same count and under the same terms, as for TRRHDWGH [ATN232], the figure is 140 µM.
With HHPHG (not fully specified (N-terminus)) [ATN-275.000.01 ((1S)-(+)-camphorsulphonyl N-capped HHPHG)], in assay [7], the IC50 is 30 µM. This lies in the double-digit micromolar range.
Still for that read-out and setting: as for {4‑Chlorobenzyl}-HHPHG [ATN-276.000.01 (4-Chlorobenzyl N-capped HHPHG)], the figure is 23 µM.
With B5, the “fold higher affinity than endostatin” value in assay [3] is around 1000 fold.
